# Source: US20210032299A1 (Eli Lilly, published 2021)
# Starred links: 1 amine or outer side, 2 acyl side, 3 side chain; linkers in the order of their positions; H or OH if unused. Non-standard residues stand in square brackets, D forms with d. Groups on a side chain read outwards from the residue. No end group written: not given here. *: point of attachment. C20 diacid = O=C(O)CCCCCCCCCCCCCCCCCCC(=O)*; αMePhe(2-F) = C[C@](N)(Cc1ccccc1F)C(=O)O; γGlu = O=C(O)[C@H](CCC(=O)[*:2])N[*:1]; αMeF = C[C@](N)(Cc1ccccc1)C(=O)O; 4Pal = N[C@@H](Cc1ccncc1)C(=O)O; AEEA = NCCOCCOCC(=O)O; Aib = CC(C)(N)C(=O)O
# T1: human glucose-dependent insulinotropic peptide receptor (human, UniProt P48546 22-466)
# T1 sequence (looked up): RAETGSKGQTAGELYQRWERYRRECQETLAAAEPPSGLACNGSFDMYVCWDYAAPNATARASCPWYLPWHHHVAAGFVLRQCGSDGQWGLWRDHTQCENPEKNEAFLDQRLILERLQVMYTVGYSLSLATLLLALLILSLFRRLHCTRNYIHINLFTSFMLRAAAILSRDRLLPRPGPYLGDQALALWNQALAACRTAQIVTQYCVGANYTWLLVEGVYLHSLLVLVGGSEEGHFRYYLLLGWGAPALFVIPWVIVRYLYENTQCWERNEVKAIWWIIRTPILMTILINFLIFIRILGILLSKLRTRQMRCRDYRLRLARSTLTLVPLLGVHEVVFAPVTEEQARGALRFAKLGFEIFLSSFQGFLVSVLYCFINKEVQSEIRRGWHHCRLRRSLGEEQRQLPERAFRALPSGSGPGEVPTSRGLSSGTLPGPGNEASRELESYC
# What was measured:
# Assay in all cases: cell-based or functional assay
# human glucagon receptor = human glucagon receptor (human, UniProt P47871 26-477)
# Sequence of human glucagon receptor (P47871 26-477): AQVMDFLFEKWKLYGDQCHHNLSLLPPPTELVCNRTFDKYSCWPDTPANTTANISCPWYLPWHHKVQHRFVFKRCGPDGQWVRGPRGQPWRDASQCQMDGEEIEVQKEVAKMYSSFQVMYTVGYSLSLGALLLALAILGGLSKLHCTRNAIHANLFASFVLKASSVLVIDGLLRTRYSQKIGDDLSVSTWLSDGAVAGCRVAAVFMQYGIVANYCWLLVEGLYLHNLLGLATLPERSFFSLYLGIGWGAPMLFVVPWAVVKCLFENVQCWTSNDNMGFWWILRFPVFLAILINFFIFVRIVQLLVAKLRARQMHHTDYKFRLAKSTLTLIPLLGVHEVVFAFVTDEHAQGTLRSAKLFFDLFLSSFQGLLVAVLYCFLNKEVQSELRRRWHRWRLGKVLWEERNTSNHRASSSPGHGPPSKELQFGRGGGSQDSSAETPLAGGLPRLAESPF
# [1] = target: T1, human glucose-dependent insulinotropic …
# human GLP-1 receptor = human GLP-1 receptor (human, UniProt P43220 24-463)
Binder,hGcgR cAMP Rel EC50 (human glucagon receptor) [nM],hGIPR cAMP Rel EC50 [1] [nM],hGLP1R cAMP Rel EC50 (human GLP-1 receptor) [nM]
Y[Aib]EGT[αMePhe(2-F)]ISDYSIALDKK([AEEA-AEEA-γGlu-C20 diacid])HQ[Aib]DFVEWLLETGPSSGAPPPS-NH2 (N-terminus assumed; SMILES CC[C@H](C)[C@H](NC(=O)[C@H](CO)NC(=O)[C@H](Cc1ccc(O)cc1)NC(=O)[C@H](CC(=O)O)NC(=O)[C@H](CO)NC(=O)[C@@H](NC(=O)[C@](C)(Cc1ccccc1F)NC(=O)[C@@H](NC(=O)CNC(=O)[C@H](CCC(=O)O)NC(=O)C(C)(C)NC(=O)[C@@H](N)Cc1ccc(O)cc1)[C@@H](C)O)[C@@H](C)CC)C(=O)N[C@@H](C)C(=O)N[C@@H](CC(C)C)C(=O)N[C@@H](CC(=O)O)C(=O)N[C@@H](CCCCN)C(=O)N[C@@H](CCCCNC(=O)COCCOCCNC(=O)COCCOCCNC(=O)CC[C@H](NC(=O)CCCCCCCCCCCCCCCCCCC(=O)O)C(=O)O)C(=O)N[C@@H](Cc1c[nH]cn1)C(=O)N[C@@H](CCC(N)=O)C(=O)NC(C)(C)C(=O)N[C@@H](CC(=O)O)C(=O)N[C@@H](Cc1ccccc1)C(=O)N[C@H](C(=O)N[C@@H](CCC(=O)O)C(=O)N[C@@H](Cc1c[nH]c2ccccc12)C(=O)N[C@@H](CC(C)C)C(=O)N[C@@H](CC(C)C)C(=O)N[C@@H](CCC(=O)O)C(=O)N[C@H](C(=O)NCC(=O)N1CCC[C@H]1C(=O)N[C@@H](CO)C(=O)N[C@@H](CO)C(=O)NCC(=O)N[C@@H](C)C(=O)N1CCC[C@H]1C(=O)N1CCC[C@H]1C(=O)N1CCC[C@H]1C(=O)N[C@@H](CO)C(N)=O)[C@@H](C)O)C(C)C) [Example 40],> 5000,0.033,2330
Y[Aib]EGT[αMeF]ISDYSIALDKK([AEEA-AEEA-γGlu-C20 diacid])HQ[Aib]DFVE[4Pal]LLETGPSSGAPPPS-NH2 (N-terminus assumed; SMILES CC[C@H](C)[C@H](NC(=O)[C@H](CO)NC(=O)[C@H](Cc1ccc(O)cc1)NC(=O)[C@H](CC(=O)O)NC(=O)[C@H](CO)NC(=O)[C@@H](NC(=O)[C@](C)(Cc1ccccc1)NC(=O)[C@@H](NC(=O)CNC(=O)[C@H](CCC(=O)O)NC(=O)C(C)(C)NC(=O)[C@@H](N)Cc1ccc(O)cc1)[C@@H](C)O)[C@@H](C)CC)C(=O)N[C@@H](C)C(=O)N[C@@H](CC(C)C)C(=O)N[C@@H](CC(=O)O)C(=O)N[C@@H](CCCCN)C(=O)N[C@@H](CCCCNC(=O)COCCOCCNC(=O)COCCOCCNC(=O)CC[C@H](NC(=O)CCCCCCCCCCCCCCCCCCC(=O)O)C(=O)O)C(=O)N[C@@H](Cc1c[nH]cn1)C(=O)N[C@@H](CCC(N)=O)C(=O)NC(C)(C)C(=O)N[C@@H](CC(=O)O)C(=O)N[C@@H](Cc1ccccc1)C(=O)N[C@H](C(=O)N[C@@H](CCC(=O)O)C(=O)N[C@@H](Cc1ccncc1)C(=O)N[C@@H](CC(C)C)C(=O)N[C@@H](CC(C)C)C(=O)N[C@@H](CCC(=O)O)C(=O)N[C@H](C(=O)NCC(=O)N1CCC[C@H]1C(=O)N[C@@H](CO)C(=O)N[C@@H](CO)C(=O)NCC(=O)N[C@@H](C)C(=O)N1CCC[C@H]1C(=O)N1CCC[C@H]1C(=O)N1CCC[C@H]1C(=O)N[C@@H](CO)C(N)=O)[C@@H](C)O)C(C)C) [Example 41],> 5000,0.0281,1800
